Data as given in paper PMC11007443, “A selection and optimization strategy for single-domain antibodies targeting the PHF6 linear peptide within the tau intrinsically disordered protein” (The Journal of Biological Chemistry, 2024).
Positions count from the first letter of the chain named. Names may count otherwise. One block for each binder: values may come before it.

How the values were obtained:
[1] = biological target: tau 2N4R (recombinant; 15N-labelled for NMR) (Homo sapiens, UniProt P10636-8); assay: cell-based or functional assay
biotinylated tau 2N4R = biological target: T1, biotinylated tau 2N4R (Homo sapiens, UniProt P10636-8, biotin (N-hydroxysuccimide-biotin conjugates, 5 M excess)); assay: SPR; biotinylated tau 2N4R captured on a streptavidin chip (500 RU); VHHs as analytes, 0.125-2 uM, single-cycle kinetics; HBS-EP+ buffer; 1:1 Langmuir model; Kd calculated as koff/kon; conditions: both partners purified
T1 construct: tau protein, 2N4R isoform, NCBI NP_005901.2; Expressed from pET15b-tau; also called full-length tau; source: E. coli BL21 (DE3), purified (heating, cation exchange), then biotinylated
T1 sequence (P10636 other isoform, or with tags, fused parts or gaps): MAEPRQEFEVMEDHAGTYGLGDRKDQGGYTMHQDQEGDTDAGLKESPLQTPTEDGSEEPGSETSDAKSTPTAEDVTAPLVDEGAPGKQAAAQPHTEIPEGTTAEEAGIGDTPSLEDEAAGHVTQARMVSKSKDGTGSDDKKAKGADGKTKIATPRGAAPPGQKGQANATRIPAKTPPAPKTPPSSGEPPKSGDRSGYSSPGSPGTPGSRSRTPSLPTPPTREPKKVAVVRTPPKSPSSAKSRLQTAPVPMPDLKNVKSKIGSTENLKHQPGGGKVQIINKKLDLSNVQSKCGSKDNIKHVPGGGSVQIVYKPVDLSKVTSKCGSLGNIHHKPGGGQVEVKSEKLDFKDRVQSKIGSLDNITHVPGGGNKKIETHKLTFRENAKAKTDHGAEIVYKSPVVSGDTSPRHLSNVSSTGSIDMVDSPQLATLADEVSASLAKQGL

Chain of tau 2N4R (recombinant; 15N-labelled for NMR) (P10636 other isoform, or with tags, fused parts or gaps): as above

heparin-induced tau 2N4R aggregation, thioflavin fluorescence intensity ratio between tau with VHH and tau alone; VHH:tau 0.2:1 (46.2%) and 0.5:1 (25%) [1]: 46.2% | Kd (biotinylated tau 2N4R): 147.8 ± 0.9 nM | koff (biotinylated tau 2N4R): 0.00267 s⁻¹ | kon (biotinylated tau 2N4R): 18100 M⁻¹ s⁻¹
B1: VHH Z70 (VHH)
VHH: EVQLQASGGVFVQSGGSLRLSCAASGATSTFDGMGWFRQAPGKEREFVSAISYEQGSYTYYADSVKGRFTISRDNSKNMVYLQMNSLRAEDTATYYCAPAYEGDLYAFDSYGGQGTQVTVSS
notes: VHH Z70; also in PDB 7QCQ; also called parent VHH; source: E. coli BL21 (DE3), periplasm, purified (IMAC, SEC)

Kd (biotinylated tau 2N4R): 61.2 ± 0.6 nM | koff (biotinylated tau 2N4R): 0.00207 s⁻¹ | kon (biotinylated tau 2N4R): 33900 M⁻¹ s⁻¹
B2: VHH Z70 mutant 12 (S23C + G115E) (VHH)
VHH: B1 VHH with S21C, G113E
notes: as the chain of m1 (VHH Z70); also called Mut12; source: E. coli BL21 (DE3), periplasm, purified (IMAC, SEC)

Kd (biotinylated tau 2N4R): 41.8 ± 0.7 nM | koff (biotinylated tau 2N4R): 0.00089 s⁻¹ | kon (biotinylated tau 2N4R): 21300 M⁻¹ s⁻¹
B3: VHH Z70 mutant 20 (R47K + G115E) (VHH)
VHH: B1 VHH with R45K, G113E
notes: as the chain of m1 (VHH Z70); Generated by the authors, not found in the screen; also called Mut20; source: E. coli BL21 (DE3), periplasm, purified (IMAC, SEC)

Kd (biotinylated tau 2N4R): 51.1 ± 0.6 nM | koff (biotinylated tau 2N4R): 0.00205 s⁻¹ | kon (biotinylated tau 2N4R): 40100 M⁻¹ s⁻¹
B4: VHH Z70 mutant 9 (P101S + G115E) (VHH)
VHH: B1 VHH with P99S, G113E
notes: as the chain of m1 (VHH Z70); also called Mut9; source: E. coli BL21 (DE3), periplasm, purified (IMAC, SEC)

Kd (biotinylated tau 2N4R): 22.7 ± 0.5 nM | koff (biotinylated tau 2N4R): 0.00242 s⁻¹ | kon (biotinylated tau 2N4R): 107000 M⁻¹ s⁻¹
B5: VHH Z70 mutant 1 (G115E) (VHH)
VHH: B1 VHH with G113E
notes: as the chain of m1 (VHH Z70); also called Mut1; source: E. coli BL21 (DE3), periplasm, purified (IMAC, SEC)

Kd (biotinylated tau 2N4R): 80.8 ± 1.5 nM | koff (biotinylated tau 2N4R): 0.000882 s⁻¹ | kon (biotinylated tau 2N4R): 10900 M⁻¹ s⁻¹
B6: VHH Z70 mutant 5 (T96S) (VHH)
VHH: B1 VHH with T94S
notes: as the chain of m1 (VHH Z70); also called Mut5; source: E. coli BL21 (DE3), periplasm, purified (IMAC, SEC)

Kd (biotinylated tau 2N4R): 80.5 ± 1.5 nM | koff (biotinylated tau 2N4R): 0.0021 s⁻¹ | kon (biotinylated tau 2N4R): 26000 M⁻¹ s⁻¹
B7: VHH Z70 mutant 3 (R47K) (VHH)
VHH: B1 VHH with R45K
notes: as the chain of m1 (VHH Z70); also called Mut3; source: E. coli BL21 (DE3), periplasm, purified (IMAC, SEC)

Kd (biotinylated tau 2N4R): 74.3 ± 0.8 nM | koff (biotinylated tau 2N4R): 0.0014 s⁻¹ | kon (biotinylated tau 2N4R): 18800 M⁻¹ s⁻¹
B8: VHH Z70 mutant 14 (VHH)
VHH: B1 VHH with T30I, E54G, G113E
notes: as the chain of m1 (VHH Z70); The text says only that G115E is combined with additional substitutions in mutant 14; also called Mut14; source: E. coli BL21 (DE3), periplasm, purified (IMAC, SEC)

Kd (biotinylated tau 2N4R): 42.5 ± 0.7 nM | koff (biotinylated tau 2N4R): 0.00277 s⁻¹ | kon (biotinylated tau 2N4R): 65300 M⁻¹ s⁻¹
B9: VHH Z70 mutant 15 (R90G + P101S + G114E) (VHH)
VHH: B1 VHH with R88G, P99S, G112E
notes: as the chain of m1 (VHH Z70); also called Mut15; source: E. coli BL21 (DE3), periplasm, purified (IMAC, SEC)
